Here are results for 58 variants from FireProtDB (doi:10.1093/protein/gzt061).

B1: Limonene-1,2-epoxide hydrolase, Q9ZAG3 (parent)
chain: MTSKIEQPRWASKDSAAGAASTPDEKIVLEFMDALTSNDAAKLIEYFAEDTMYQNMPLPPAYGRDAVEQTLAGLFTVMSIDAVETFHIGSSNGLVYTERVDVLRALPTGKSYNLSILGVFQLTEGKITGWRDYFDLREFEEAVDLPLRG

Variants of B1 are the subject of the data set. The conditions noted are these: Rhodococcus erythropolis; pH 7.1; Thermal; Fluorescence; Potassium phosphate 50mM; transition: 2; reversible: no; structure 1NWW; whole UniProt chain shown.

On to Y62W, for which the Tm (commonly the temperature at the midpoint of the melting transition) was determined as 48.8 °C and the “change of melting temperature, mutant - wild type (higher = more stable)” value (“change of melting temperature, mutant” below) was determined as 0 °C.

On to A142R, for which the Tm was determined as 46 °C and the “change of melting temperature, mutant” value is -2.8 °C.

Consider A20P, for which the Tm was 46.7 °C and the “change of melting temperature, mutant” value was -2.1 °C.

Regarding S12R, the Tm stood at 49 °C and the “change of melting temperature, mutant” value came out at 0.2 °C.

In the case of E124D, the Tm is 50.1 °C and the “change of melting temperature, mutant” value came to 1.3 °C.

For E124K, the Tm came out at 47.5 °C and the “change of melting temperature, mutant” value was -1.3 °C.

Consider E124R, for which the Tm was 46 °C and the “change of melting temperature, mutant” value was -2.8 °C.

On to M32C V83C, for which the Tm turned out to be 44 °C and the “change of melting temperature, mutant” value is -4.8 °C.

As to T85L, the Tm was 51.3 °C and the “change of melting temperature, mutant” value turned out to be 2.5 °C.

Turning to T85I, the Tm turned out to be 54.6 °C and the “change of melting temperature, mutant” value turned out to be 5.8 °C.

With T85V, the midpoint of thermal melting (Tm) came out at 55.6 °C and the “change of melting temperature, mutant” value was found to be 6.8 °C.

Consider T85P, for which the Tm came out at 42.8 °C and the “change of melting temperature, mutant” value was -6 °C.

Consider V102C, for which the Tm was determined as 62 °C and the “change of melting temperature, mutant” value was 13.2 °C.

Take E68Q: the melting temperature (Tm) is 49.3 °C and the “change of melting temperature, mutant” value amounted to 0.5 °C.

On to S15K, for which the Tm came out at 48.5 °C and the “change of melting temperature, mutant” value was -0.3 °C.

S15P: the Tm was found to be 49 °C and the “change of melting temperature, mutant” value was found to be 0.2 °C.

As to K13P, the Tm was 44.8 °C and the “change of melting temperature, mutant” value was -4 °C.

On to L122F, for which the Tm worked out at 41.3 °C and the “change of melting temperature, mutant” value is -7.5 °C.

On to K4C A82C, for which the Tm was determined as 59 °C and the “change of melting temperature, mutant” value was determined as 10.2 °C.

Take I5C E84C: the Tm turned out to be 64 °C and the “change of melting temperature, mutant” value is 15.2 °C.

For Y112C A142C, the Tm was determined as 56 °C and the “change of melting temperature, mutant” value came out at 7.2 °C.

Consider D33K, for which the melting temperature (Tm) was 47.3 °C and the “change of melting temperature, mutant” value was -1.5 °C.

Regarding D33R, the Tm amounted to 46.5 °C and the “change of melting temperature, mutant” value is -2.3 °C.

For A66P, the Tm came out at 49.6 °C and the “change of melting temperature, mutant” value is 0.8 °C.

Turning to L94F, the Tm is 48.8 °C and the “change of melting temperature, mutant” value came to 0 °C.

Take N92R: the Tm stood at 50.6 °C and the “change of melting temperature, mutant” value is 1.8 °C.

For the variant N92K, the Tm stood at 56.1 °C and the “change of melting temperature, mutant” value is 7.3 °C.

On to D65E, for which the Tm is 49.3 °C and the “change of melting temperature, mutant” value was determined as 0.5 °C.

Take A48C K126C: the Tm was 53 °C and the “change of melting temperature, mutant” value worked out at 4.2 °C.

For the variant G18N, the Tm stood at 49.1 °C and the “change of melting temperature, mutant” value was 0.3 °C.

For I127F, the Tm amounted to 46.3 °C and the “change of melting temperature, mutant” value is -2.5 °C.

Regarding Y96F, the Tm was found to be 51.6 °C and the “change of melting temperature, mutant” value came out at 2.8 °C.

As for L106R, the Tm is 46.5 °C and the “change of melting temperature, mutant” value is -2.3 °C.

Turning to A105C V143C, the Tm was 46.5 °C and the “change of melting temperature, mutant” value was -2.3 °C.

G89C S91C: the melting temperature (Tm) turned out to be 66 °C and the “change of melting temperature, mutant” value was 17.2 °C.

As for D24C L122C, the midpoint of thermal melting (Tm) amounted to 36 °C and the “change of melting temperature, mutant” value is -12.8 °C.

As for A41R, the Tm was determined as 48.8 °C and the “change of melting temperature, mutant” value stood at 0 °C.

Take A41S: the Tm was found to be 49.1 °C and the “change of melting temperature, mutant” value was 0.3 °C.

As to E45K, the Tm is 50.8 °C and the “change of melting temperature, mutant” value was 2 °C.

With E45R, the Tm amounted to 47.8 °C and the “change of melting temperature, mutant” value was -1 °C.

On to K110R, for which the midpoint of thermal melting (Tm) turned out to be 47.3 °C and the “change of melting temperature, mutant” value was -1.5 °C.

Regarding D50P, the Tm stood at 42.8 °C and the “change of melting temperature, mutant” value is -6 °C.

Consider D24R, for which the Tm is 45 °C and the “change of melting temperature, mutant” value is -3.8 °C.

For the variant A17C N92C, the Tm was 64 °C and the “change of melting temperature, mutant” value is 15.2 °C.

Turning to I27M, the Tm worked out at 47 °C and the “change of melting temperature, mutant” value was -1.8 °C.

As to A19K, the Tm was found to be 51.3 °C and the “change of melting temperature, mutant” value is 2.5 °C.

For I44C E68C, the midpoint of thermal melting (Tm) came to 56 °C and the “change of melting temperature, mutant” value came to 7.2 °C.

In the case of Q121V, the Tm is 38.8 °C and the “change of melting temperature, mutant” value was -10 °C.

As to S111R, the Tm worked out at 48.8 °C and the “change of melting temperature, mutant” value is 0 °C.

Turning to S111K, the Tm is 46.5 °C and the “change of melting temperature, mutant” value was -2.3 °C.

For M52C G129C, the Tm was 40 °C and the “change of melting temperature, mutant” value is -8.8 °C.

Regarding P57C D135C, the midpoint of thermal melting (Tm) came to 35 °C and the “change of melting temperature, mutant” value was -13.8 °C.

Turning to K42R, the Tm came out at 47.5 °C and the “change of melting temperature, mutant” value is -1.3 °C.

Turning to A16R, the midpoint of thermal melting (Tm) is 48.3 °C and the “change of melting temperature, mutant” value is -0.5 °C.

With A72R, the Tm came out at 47 °C and the “change of melting temperature, mutant” value is -1.8 °C.

Consider T76K, for which the Tm stood at 50.3 °C and the “change of melting temperature, mutant” value turned out to be 1.5 °C.

A17C L94C: the midpoint of thermal melting (Tm) was found to be 56 °C and the “change of melting temperature, mutant” value was 7.2 °C.

Take Q69R: the Tm stood at 49.1 °C and the “change of melting temperature, mutant” value amounted to 0.3 °C.
